From PMC2866327, “Designed Inhibitors of Insulin-Degrading Enzyme Regulate the Catabolism and Activity of Insulin” (PLoS ONE, 2010)
Square brackets hold non-standard residues; d marks the D form. Ends that are not written are not given here. 2Nal = N[C@@H](Cc1ccc2ccccc2c1)C(=O)O; d2Nal = N[C@H](Cc1ccc2ccccc2c1)C(=O)O

Molecular target: T1, insulin-degrading enzyme (recombinant human IDE) (human, UniProt P14735 1-1019)
T1 construct: insulin-degrading enzyme, human, recombinant; source: recombinant, purified from bacteria [33]
Assay: enzyme inhibition assay (Ki); recombinant human IDE (nominal 1 nM); dose-response of the hydrolysis of IDE substrates (FRET1, SP1, FAβB, 125I-insulin, or insulin by HTRF); the substrate used for the Ki values in the text is not stated
Settings: both partners purified

Row | Ki | fold gain in potency (relative Ki) against Phe at P1' | Binder
1 | ~1.7 nM | – | [2Nal]RWE (also: N-terminal hydroxamic acid moiety, structure not given here) [Ii1 (IDE inhibitor 1), conventional peptide hydroxamate incorporating 2-Nap at the P1' position]
2 | – | ~100 fold | [d2Nal]-[dR]-[dY] (also: retro-inverso backbone, hydroxamic acid next to P1', P1' said to be a β-amino acid) [retro-inverso peptide hydroxamate Xaa-Arg-Tyr with 2-naphthylalanine (2-Nap) at P1']
